Reference: US20060140929A1 (Merck KGaA, published 2006)

biological target: thrombin; test: cell-based or functional assay

Binder	Relative Activity (ratio of variant IC50/WT IC50), chromogenic thrombin inhibition assay
hirudin mutein M 2 (I29R L30H) (other) VVYTDCTESGQNLCLCEGSVVCGQGNKCRHGSDGEKNQCVTGEGTPKPESHNDGDFEEIPEEYLQ	1.2 ratio
hirudin mutein M 23 (I29R L30K) (other) VVYTDCTESGQNLCLCEGSVVCGQGNKCRKGSDGEKNQCVTGEGTPKPESHNDGDFEEIPEEYLQ	0.93 ratio
hirudin mutein M 42 (V21A) (other) VVYTDCTESGQNLCLCEGSVACGQGNKCILGSDGEKNQCVTGEGTPKPESHNDGDFEEIPEEYLQ	0.93 ratio
hirudin mutein M 24 (I29R L30Q) (other) VVYTDCTESGQNLCLCEGSVVCGQGNKCRQGSDGEKNQCVTGEGTPKPESHNDGDFEEIPEEYLQ	1 ratio
hirudin mutein M 25 (I29R L30R) (other) VVYTDCTESGQNLCLCEGSVVCGQGNKCRRGSDGEKNQCVTGEGTPKPESHNDGDFEEIPEEYLQ	1 ratio
hirudin mutein M 26 (I29R L30T) (other) VVYTDCTESGQNLCLCEGSVVCGQGNKCRTGSDGEKNQCVTGEGTPKPESHNDGDFEEIPEEYLQ	1 ratio
hirudin mutein M 27 (I29S L30A) (other) VVYTDCTESGQNLCLCEGSVVCGQGNKCSAGSDGEKNQCVTGEGTPKPESHNDGDFEEIPEEYLQ	1.34 ratio
hirudin mutein M 28 (I29S L30K) (other) VVYTDCTESGQNLCLCEGSVVCGQGNKCSKGSDGEKNQCVTGEGTPKPESHNDGDFEEIPEEYLQ	1.5 ratio
hirudin mutein M 29 (I29S L30Q) (other) VVYTDCTESGQNLCLCEGSVVCGQGNKCSQGSDGEKNQCVTGEGTPKPESHNDGDFEEIPEEYLQ	2 ratio
hirudin mutein M 30 (I29S L30R) (other) VVYTDCTESGQNLCLCEGSVVCGQGNKCSRGSDGEKNQCVTGEGTPKPESHNDGDFEEIPEEYLQ	2.5 ratio
hirudin mutein M 31 (I29S L30T) (other) VVYTDCTESGQNLCLCEGSVVCGQGNKCSTGSDGEKNQCVTGEGTPKPESHNDGDFEEIPEEYLQ	1.1 ratio
hirudin mutein M 32 (I29T L30A) (other) VVYTDCTESGQNLCLCEGSVVCGQGNKCTAGSDGEKNQCVTGEGTPKPESHNDGDFEEIPEEYLQ	1.67 ratio
hirudin mutein M 33 (I29T L30K) (other) VVYTDCTESGQNLCLCEGSVVCGQGNKCTKGSDGEKNQCVTGEGTPKPESHNDGDFEEIPEEYLQ	1.6 ratio
hirudin mutein M 43 (V21G) (other) VVYTDCTESGQNLCLCEGSVGCGQGNKCILGSDGEKNQCVTGEGTPKPESHNDGDFEEIPEEYLQ	1 ratio
hirudin mutein M 34 (I29T L30Q) (other) VVYTDCTESGQNLCLCEGSVVCGQGNKCTQGSDGEKNQCVTGEGTPKPESHNDGDFEEIPEEYLQ	2.4 ratio
hirudin mutein M 35 (I29T L30R) (other) VVYTDCTESGQNLCLCEGSVVCGQGNKCTRGSDGEKNQCVTGEGTPKPESHNDGDFEEIPEEYLQ	2.3 ratio
hirudin mutein M 36 (I29T L30T) (other) VVYTDCTESGQNLCLCEGSVVCGQGNKCTTGSDGEKNQCVTGEGTPKPESHNDGDFEEIPEEYLQ	1.8 ratio
hirudin mutein M 11 (I29R L30R V40T) (other) VVYTDCTESGQNLCLCEGSVVCGQGNKCRRGSDGEKNQCTTGEGTPKPESHNDGDFEEIPEEYLQ	0.7 ratio
hirudin mutein M 44 (V21H) (other) VVYTDCTESGQNLCLCEGSVHCGQGNKCILGSDGEKNQCVTGEGTPKPESHNDGDFEEIPEEYLQ	0.74 ratio
hirudin mutein M 45 (V21K) (other) VVYTDCTESGQNLCLCEGSVKCGQGNKCILGSDGEKNQCVTGEGTPKPESHNDGDFEEIPEEYLQ	0.9 ratio
